Test results as given in patent publication US20220041706A1 (published 2022).

Target: cynomolgus monkey FGF19 (cynomolgus monkey)
Experiment: SPR

Sequence of cynomolgus monkey FGF19 (cynomolgus monkey) (chain, as listed by the source): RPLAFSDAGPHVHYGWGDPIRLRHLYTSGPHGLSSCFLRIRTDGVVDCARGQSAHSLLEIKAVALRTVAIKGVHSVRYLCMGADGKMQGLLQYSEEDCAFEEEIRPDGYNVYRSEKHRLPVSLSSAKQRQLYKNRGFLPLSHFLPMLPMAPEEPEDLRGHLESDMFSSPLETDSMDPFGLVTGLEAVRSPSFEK

B1: G1A8 (anti-FGF19 human IgG1 antibody, affinity-improved from 31A3) (antibody, V domains shown)
VH: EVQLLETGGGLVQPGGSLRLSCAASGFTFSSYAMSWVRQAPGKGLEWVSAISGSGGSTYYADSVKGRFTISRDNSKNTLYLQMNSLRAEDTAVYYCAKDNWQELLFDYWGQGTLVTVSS
VL: QAGLTQPASVSGSPGQSITISCTGTSSDVGGYNYVSWYQQHPGKAPKLMIYDVSNRPSGVSDRFSGSKSGNTASLTISGLQTEDEADYYCSSWTRSSGLVFGGGTQLTVLG
Q: How did the Kd turn out when B1 was run?
A: Its Kd is 1.63 nM.
